From the supplement of paper PMC10724198
± gives the standard deviation of the averaged measurements.

How the values were obtained:
[1] = test system: Saccharomyces cerevisiae; test: protein stability index of tFT-peptide fusion (C-terminal peptide) (PSI (0-1 scale)); higher = more stable (slower turnover); settings: genetic background: wild type; temperature: 30 C
[2] = test system: Saccharomyces cerevisiae; test: as above
Protocol: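 MPS profiling in S. cerevisiae of the tFT-X12 degron library: putative degron peptides plus stable controls, 12 aa, fused to the C-terminus of a sfGFP-mCherry timer. Cells are FACS-sorted into 8 mCherry/sfGFP bins and deep-sequenced. PSI runs from 0 (unstable) to 1 (stable). Backgrounds are wild type, das1Δ and doa10Δ at 30 °C, and wild type, das1Δ, cdc34-1 and cdc53-1 at 37 °C; 2-3 technical replicates each.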

[3] = genetic background: cdc34-1, temperature: 37 C
[4] = genetic background: cdc53-1, temperature: 37 C
[5] = genetic background: das1 deletion, temperature: 30 C
[6] = genetic background: das1 deletion, temperature: 37 C
[7] = genetic background: doa10 deletion, temperature: 30 C
[8] = genetic background: wild type, temperature: 30 C
[9] = genetic background: wild type, temperature: 37 C
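Further: PSI is a weighted mean of sequencing reads over stability bins, variants kept only with over 10 reads, mCherry proximal and sfGFP distal, peptide attached via GGGS linker.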

Sequence	protein stability index [1]	protein stability index [2, 3]	protein stability index [2, 4]	protein stability index [2, 5]	protein stability index [2, 6]	protein stability index [2, 7]	protein stability index [2, 8]	protein stability index [2, 9]
VVSGLNYCLVLS	0.3917 ± 0.0038	0.48 ± 0.033	0.48 ± 0.029	0.29 ± 0.042	0.523 ± 0.006	0.276 ± 0.013	0.28 ± 0.039	0.4829 ± 0.0021
VVVCSLVPLFVL	0.34 ± 0.018	0.3086 ± 0.0026	0.32 ± 0.035	0.272 ± 0.03	0.41 ± 0.017	0.205 ± 0.012	0.235 ± 0.029	0.318 ± 0.0076
VVVVWVVVEIVR	0.169 ± 0.036	0.147 ± 0.033	0.275 ± 0.11	0.164 ± 0.022	0.279 ± 0.033	0.121 ± 0.018	0.133 ± 0.024	0.178 ± 0.012
VVWVYSMLFSIW	0.276 ± 0.0055	0.19 ± 0.02	0.3594 ± 0.00053	0.231 ± 0.034	0.403 ± 0.015	0.202 ± 0.013	0.221 ± 0.021	0.415 ± 0.068
VWFFLLSFANRL	0.476 ± 0.015	0.4767 ± 0.0035	0.5386 ± 0.004	0.465 ± 0.043	0.517 ± 0.0083	0.466 ± 0.029	0.45 ± 0.0099	0.4845 ± 0.00053
VWFGGFVCSVLG	0.393 ± 0.039	0.366 ± 0.019	0.361 ± 0.012	0.314 ± 0.028	0.4478 ± 0.0026	0.244 ± 0.0056	0.297 ± 0.026	0.415 ± 0.018
VWFGGLAVCCGG	0.396 ± 0.042	0.398 ± 0.024	0.405 ± 0.037	0.303 ± 0.025	0.4815 ± 0.0022	0.2709 ± 0.0023	0.303 ± 0.03	0.43156 ± 0.00042
VWYSCWSFLVLF	0.291 ± 0.024	0.444 ± 0.026	0.548 ± 0.011	0.416 ± 0.034	0.55122 ± 0.00022	0.2 ± 0.011	0.207 ± 0.024	0.362 ± 0.035
VYRRKLDRLLCI	0.332 ± 0.1	0.561 ± 0.029	0.615 ± 0.025	0.512 ± 0.021	0.652 ± 0.0088	0.171 ± 0.012	0.182 ± 0.035	0.275 ± 0.005
WAAVGIQLRLLF	0.3323 ± 0.00057	0.354 ± 0.011	0.34 ± 0.015	0.317 ± 0.034	0.47357 ± 9.6e-05	0.233 ± 0.026	0.199 ± 0.018	0.347 ± 0.022
WALVLLVPVWFD	0.471 ± 0.027	0.442 ± 0.031	0.553 ± 0.06	0.383 ± 0.032	0.567 ± 0.011	0.396 ± 0.055	0.402 ± 0.014	0.533 ± 0.0073
WCAGCLGWWLQS	0.415 ± 0.028	0.683 ± 0.059	0.8029 ± 0.003	0.694 ± 0.015	0.791 ± 0.014	0.246 ± 0.01	0.316 ± 0.038	0.548 ± 0.012
WCAMITVFCGSG	0.34 ± 0.016	0.268 ± 0.035	0.29 ± 0.041	0.214 ± 0.037	0.4101 ± 0.0027	0.179 ± 0.015	0.208 ± 0.033	0.3796 ± 0.0026
WCAVRVWFGAAL	0.505 ± 0.014	0.648 ± 0.052	0.676 ± 0.028	0.5731 ± 0.0039	0.693 ± 0.017	0.3927 ± 0.0016	0.424 ± 0.01	0.56132 ± 0.00042
WCCVFVARFFWL	0.413 ± 0.04	0.416 ± 0.013	0.504 ± 0.013	0.348 ± 0.031	0.499 ± 0.014	0.334 ± 0.0061	0.342 ± 0.011	0.44 ± 0.008
WEISNFFGCFIG	0.428 ± 0.028	0.671 ± 0.031	0.758 ± 0.026	0.683 ± 0.044	0.772 ± 0.017	0.325 ± 0.0037	0.365 ± 0.01	0.552 ± 0.071
WFFTDIVMLVRV	0.273 ± 0.0098	0.126 ± 0.014	0.12 ± 0.044	0.192 ± 0.026	0.277 ± 0.0094	0.237 ± 0.0069	0.193 ± 0.023	0.233 ± 0.018
WFSVFTMSILSR	0.435 ± 0.0096	0.416 ± 0.026	0.479 ± 0.0075	0.338 ± 0.028	0.4963 ± 0.0024	0.334 ± 0.004	0.341 ± 0.018	0.474 ± 0.01
WFWVAVGVVGGG	0.449 ± 0.014	0.496 ± 0.029	0.534 ± 0.022	0.356 ± 0.032	0.5243 ± 0.0031	0.326 ± 0.016	0.358 ± 0.015	0.5 ± 0.0082
WGCIFWFFDVRV	0.386 ± 0.027	0.193 ± 0.0065	0.335 ± 0.015	0.229 ± 0.023	0.416 ± 0.018	0.203 ± 0.0046	0.207 ± 0.025	0.402 ± 0.026
